From patent publication US20070065890A1, “Method for promoting formation of facultative heterochromatin” (priority 2005, published 2007)

Molecular target: endogenous histone H1
Assay: cell-based or functional assay

derepression of the Gal4 pTK-Luc reporter (compare G4-SirT1 with G4-ΔN-SirT1): 20%
Substance: deletion mutant G4-ΔNSirT1 (Δ(1-268)) (from UniProt P04386 1-147)
